B1: HDAC6 (parent)
chain: QEGLLDRCVSFQARFAEKEELMLV

Variants of: B1
Test: protein stability index of a GFP-peptide fusion (GPS, HEK-293T) (PSI 1-6); higher = more stable
Conditions: c terminus: a fixed tail appended
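Also: lentivirally expressed fusions sorted by FACS into six bins by GFP to DsRed ratio, PSI derived from sequencing read proportions per bin multiplied by bin number.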

Protein stability index, by site and new letter:
F15: N 3.04, Q 2.55, R 2.58, K 3.13, Y 1.62, G 2.54, E 2.91, M 2.16, L 2.23, I 1.56, A 2.33, S 2.9, V 2.49, W 2.36, P 3.02, T 2.81, H 2.4, D 3.55, C 2.36
Q12: S 1.6, D 1.87, I 2.57, C 2.1, N 2.65, W 1.08, G 2.77, P 2.47, R 1.58, F 1.69, A 1.66, E 1.83, H 2.81, M 2.02, T 1.99, L 1.52, K 2, V 1.14
F11: H 2.37, S 2.53, A 2.35, Y 2.03, K 2.33, W 1.75, V 2.17, M 2.17, L 1.71, T 2.83, P 2.73, Q 2.1, D 3.01, N 2.93, G 2.43, C 3.17, I 2, R 2.66, E 3.09
V9: N 2.58, K 2.34, C 2.18, M 2.57, E 2.35, Q 2.7, F 1.63, L 1.74, R 2, D 2.29, P 2.36, S 2.84, T 2.07, I 2.44, G 1.9, H 1.94, Y 2.29, W 1.79
S10: F 1.83, I 1.77, T 2.31, L 1.89, H 1.75, C 1.77, Q 2.1, R 2.37, Y 2.56, K 2.13, M 1.64, P 1.99, D 2.19, N 1.66, V 1.45, E 2.17, A 2.5, W 1.86, G 1.82
R14: H 2.27, F 1.56, S 1.9, A 1.4, N 2.41, G 2.07, Y 2.24, D 2.54, M 1.66, Q 1.71, E 2.57, T 2.14, C 2.21, V 1.38, K 2.06, P 1.97, I 2.35, L 1.7
A13: T 2.03, S 1.57, D 2.44, G 1.85, V 1.39, L 1.38, W 2.2, K 2.47, M 1.89, H 2.59, I 1.47, E 1.31, Y 1.76, N 1.89, R 1.93, C 1.4, P 2.05, F 2.2, Q 2.08
E17: F 1.53, W 1.02, D 2.14, N 1.68, T 1.46, H 1.49, L 1.85, I 1.58, R 2.03, C 1.73, Q 2.05, K 1.72, P 1.73, A 2.05, S 1.7, V 1.21, G 1.95, M 1.4
A16: Q 1.93, E 2.6, D 1.84, C 1.48, F 1.75, H 1.41, V 1.5, N 1.97, L 1.07, R 2.62, I 2.31, M 1.87, K 2.38, G 1.62, S 2.21, T 1.74, P 2.11, Y 1.65, W 1.03
